Measurements: publication PMC11154705, “Spatio-temporal control of asymmetric septum positioning during sporulation in Bacillus subtilis” (The Journal of Biological Chemistry, 2024)
Where “and” joins values, the source holds several entries; their conditions need not be identical. Equal entries are not always repeated.

Biological target: the molecule itself
Experiment: SEC; Superdex S200 16/60 in 50 mM Tris-HCl pH 8.5, 300 mM NaCl; proteins applied separately or mixed (350 ul RefZ 28.8 uM premixed with 350 ul cyt-SpoIIE 15.5 uM, dialyzed overnight, 500 ul loaded); fractions analysed by anti-His Western blot

B1: His-tagged cytosolic part of SpoIIE (375-827 aa) (domain or fragment, B. subtilis, UniProt P37475 375-827, looked up)
chain: YQASDEQTDDSEVDLFLSKITEHSCQTCYKKNRCWVQNFDKTYDLMKQVMLETEEKEYASNRRLKKEFQQYCSKSKQVEELIEDELAHHHAHLTLKKKVQDSRRLVAEQLLGVSEVMADFSREIKREREQHFLQEEQIIEALQHFGIEIQHVEIYSLEQGNIDIEMTIPFSGHGESEKIIAPMLSDILEEQILVKAEQHSPHPNGYSHVAFGSTKSYRVSTGAAHAAKGGGLVSGDSYSMMELGARKYAAAISDGMGNGARAHFESNETIKLLEKILESGIDEKIAIKTINSILSLRTTDEIYSTLDLSIIDLQDASCKFLKVGSTPSFIKRGDQVMKVQASNLPIGIINEFDVEVVSEQLKAGDLLIMMSDGIFEGPKHVENHDLWMKRKMKGLKTNDPQEIADLLMEEVIRTRSGQIEDDMTVVVVRIDHNTPKWASIPVPAIFQNKQEIS
notes: SpoIIE, Bacillus subtilis, cytosolic part, residues 375-827; Elutes as dimers, tetramers and higher oligomers; also called cyt-SpoIIE; not shown: His-tag, N-terminal, kept
B1 was tested. Which “stoichiometry N” value did it give?
The value was 2 and 4.
